Measured values: publication PMC8431453

Biological target: Met receptor tyrosine kinase (human (endogenous in EHMES-1)) (UniProt P08581)
UniProt P08581, sequence (P08581 25-1390): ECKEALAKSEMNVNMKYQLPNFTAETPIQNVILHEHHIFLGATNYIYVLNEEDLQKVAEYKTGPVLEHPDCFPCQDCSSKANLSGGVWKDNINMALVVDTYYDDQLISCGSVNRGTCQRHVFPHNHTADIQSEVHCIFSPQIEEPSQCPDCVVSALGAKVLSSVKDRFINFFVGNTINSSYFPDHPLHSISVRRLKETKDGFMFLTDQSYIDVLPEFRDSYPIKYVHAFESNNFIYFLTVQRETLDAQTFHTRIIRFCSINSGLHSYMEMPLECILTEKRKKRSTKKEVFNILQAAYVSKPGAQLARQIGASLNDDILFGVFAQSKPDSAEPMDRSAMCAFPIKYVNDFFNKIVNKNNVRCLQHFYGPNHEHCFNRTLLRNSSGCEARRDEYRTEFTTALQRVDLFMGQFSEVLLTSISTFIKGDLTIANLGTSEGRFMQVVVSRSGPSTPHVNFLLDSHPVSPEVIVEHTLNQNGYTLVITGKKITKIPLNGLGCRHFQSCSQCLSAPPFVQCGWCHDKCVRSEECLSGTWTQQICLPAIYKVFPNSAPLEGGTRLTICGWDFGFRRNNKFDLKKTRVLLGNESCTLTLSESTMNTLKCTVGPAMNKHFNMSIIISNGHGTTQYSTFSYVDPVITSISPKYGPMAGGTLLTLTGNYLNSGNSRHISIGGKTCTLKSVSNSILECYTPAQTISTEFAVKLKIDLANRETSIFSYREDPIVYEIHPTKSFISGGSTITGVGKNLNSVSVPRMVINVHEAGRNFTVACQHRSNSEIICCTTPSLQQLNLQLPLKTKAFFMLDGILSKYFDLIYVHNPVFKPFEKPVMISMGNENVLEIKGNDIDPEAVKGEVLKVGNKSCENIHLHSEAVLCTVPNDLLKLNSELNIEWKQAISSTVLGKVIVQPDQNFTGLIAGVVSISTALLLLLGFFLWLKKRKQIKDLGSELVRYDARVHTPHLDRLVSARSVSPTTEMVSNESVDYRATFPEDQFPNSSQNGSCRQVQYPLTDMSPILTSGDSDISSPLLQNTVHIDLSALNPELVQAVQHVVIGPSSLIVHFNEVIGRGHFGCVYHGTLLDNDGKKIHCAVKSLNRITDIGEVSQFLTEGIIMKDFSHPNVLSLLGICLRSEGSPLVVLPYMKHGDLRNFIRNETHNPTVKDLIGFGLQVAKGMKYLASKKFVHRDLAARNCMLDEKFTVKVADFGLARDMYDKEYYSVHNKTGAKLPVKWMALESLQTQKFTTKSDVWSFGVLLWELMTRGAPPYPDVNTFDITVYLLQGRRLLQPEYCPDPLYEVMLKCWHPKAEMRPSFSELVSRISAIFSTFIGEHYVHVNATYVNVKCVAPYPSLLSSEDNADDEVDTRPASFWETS

| Met Y1234/1235 phosphorylation in EHMES-1 cells, cell-based ELISA, at 30 nM, compared with wild-type NK1 [%] | Met Y1234/1235 phosphorylation in EHMES-1 cells, cell-based ELISA, compared with 30 nM wild-type NK1 (fold of 30 nM wild-type NK1) | Substance |
| --- | --- | --- |
| 23.8 | – | V140A mutant NK1 (ligand) |
| – | 2.5 | wild-type hepatocyte growth factor (two-chain HGF) (from UniProt P14210-3 32-489) (ligand) |
| 52.2 | – | K144A mutant NK1 (ligand) |
| 8.3 | – | N127A mutant NK1 (ligand) |
